# According to PMC9400078:
# Legend:
# [1] = biological target: CelTOS double mutant Lys122Asp, Leu164Asp (Plasmodium vivax); assay: SEC
# [2] = biological target: CelTOS N-terminal truncation mutant (Gly51–Asp196) (Plasmodium vivax); assay: SEC
Substance,stoichiometry N [1],stoichiometry N [2]
"CelTOS double mutant Lys122Asp, Leu164Asp (natural protein)",2,
CelTOS N-terminal truncation mutant (Gly51–Asp196) (domain or fragment),,2
